Assay results from patent US20230002493A1 (ORIONIS BIOSCIENCES, published 2023).

How the values were obtained:
[1] = biological target: T1, recombinant PD-L1 extracellular domain fused to the mouse IgG1 Fc domain (SinoBiologicals) (human; mouse, UniProt Q9NZQ7 19-238); experiment: BLI (Octet Red 96); ratio of the printed KDs, variant over 2LIG189
T1 construct: extracellular domain; also called human PD-L1-mouse Fc; PD-L1-mouse Fc protein; not shown: mouse IgG1 Fc domain
Procedure: (§1) Affinities of resulting variants were measured using the bio-layer interferometry technology on an Octet Red 96 instrument (ForteBio). In brief, recombinant PD-L1 extracellular domain fused to the mouse IgG1 Fc domain (SinoBiologicals) was immobilized on anti-murine IgG quantitation (AMQ) biosensors (ForteBio). Loaded sensors were incubated with a serial dilution of PD-L1 VHH variant, association and dissociation monitored and kinetic parameters were calculated using the Octet Data Analysis software v10 (ForteBio).
(§2) The aspartic acid at position 1 was included to avoid the risk of pyroglutamate formation. […] Resulting mutants were purified and affinities measured as described in Example 1.

[2] = biological target: T1, recombinant PD-L1 extracellular domain …; experiment: BLI as in Example 1; reference not named, taken as parental 2LIG189
Procedure: as §1, §2

[3] = biological target: T1, recombinant PD-L1 extracellular domain …; experiment: BLI (Octet Red 96), PD-L1-mouse IgG1 Fc on AMQ biosensors, VHH dilution series
Procedure: as §1, §2

[4] = biological target: T1, recombinant PD-L1 extracellular domain …; experiment: BLI (Octet), PD-L1-mouse Fc on the sensor, VHH dilution series, as described above
Procedure: as §1

[5] = biological target: T1, recombinant PD-L1 extracellular domain …; experiment: BLI as described above; reference not named
[6] = biological target: T1, recombinant PD-L1 extracellular domain …; experiment: BLI (Octet Red 96); ratio of the printed KDs, 2LIG99 over variant
Procedure: as §1

[7] = biological target: T1, recombinant PD-L1 extracellular domain …; experiment: BLI (Octet Red 96), PD-L1-mouse IgG1 Fc on AMQ biosensors, VHH dilution series; remark: listed apart in the source
Procedure: as §1

[8] = biological target: T1, recombinant PD-L1 extracellular domain …; experiment: BLI (Octet Red 96), PD-L1-mouse IgG1 Fc on AMQ biosensors, VHH dilution series; KD and kdis printed ND
Procedure: as §1

T1 sequence (Q9NZQ7 19-238): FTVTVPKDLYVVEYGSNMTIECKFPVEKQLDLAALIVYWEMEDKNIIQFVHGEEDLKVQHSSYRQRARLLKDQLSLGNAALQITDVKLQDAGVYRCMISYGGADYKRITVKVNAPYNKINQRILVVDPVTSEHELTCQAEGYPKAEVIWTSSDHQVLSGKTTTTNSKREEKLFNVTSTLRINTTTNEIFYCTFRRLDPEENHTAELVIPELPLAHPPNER

Ratio KD [1]	fold increase in affinity [2] [fold]	Kd [3] [nM]	koff [3] [s⁻¹]	kon [3] [M⁻¹ s⁻¹]	Ratio KD [6]	Kd [7] [nM]	koff [7] [s⁻¹]	kon [7] [M⁻¹ s⁻¹]	Binder	further results
0.47	≥ 2	0.372	0.000157	421000	–	–	–	–	2LIG189 variant D33H (VHH, not shown: small tags and cut ends) VHH: QVQLQESGGGLVQAGGSLRLSCAASGKIFSGNHMGWYRQAPGKQRELVGIITSGGITDYADAVKGRFTISRDNAKNMMYLQMNSLKPEDTAVYYCNMRDRTIWWGQGTQVTVSS	–
0.16	≥ 2	0.125	8.84e-06	70500	–	–	–	–	2LIG189 variant N32Q (VHH, not shown: small tags and cut ends) VHH: QVQLQESGGGLVQAGGSLRLSCAASGKIFSGQDMGWYRQAPGKQRELVGIITSGGITDYADAVKGRFTISRDNAKNMMYLQMNSLKPEDTAVYYCNMRDRTIWWGQGTQVTVSS	–
0.01	≥ 2	0.00599	3.81e-07	63700	–	–	–	–	2LIG189 variant M97V (VHH, not shown: small tags and cut ends) VHH: QVQLQESGGGLVQAGGSLRLSCAASGKIFSGNDMGWYRQAPGKQRELVGIITSGGITDYADAVKGRFTISRDNAKNMMYLQMNSLKPEDTAVYYCNVRDRTIWWGQGTQVTVSS	–
0.01	≥ 2	0.0115	4.88e-07	42500	–	–	–	–	2LIG189 variant M97L (VHH, not shown: small tags and cut ends) VHH: QVQLQESGGGLVQAGGSLRLSCAASGKIFSGNDMGWYRQAPGKQRELVGIITSGGITDYADAVKGRFTISRDNAKNMMYLQMNSLKPEDTAVYYCNLRDRTIWWGQGTQVTVSS	–
–	≥ 2	< 0.001	< 1e-07	351000	–	–	–	–	2LIG189 variant N32R (VHH, not shown: small tags and cut ends) VHH: QVQLQESGGGLVQAGGSLRLSCAASGKIFSGRDMGWYRQAPGKQRELVGIITSGGITDYADAVKGRFTISRDNAKNMMYLQMNSLKPEDTAVYYCNMRDRTIWWGQGTQVTVSS	–
0.01	≥ 2	0.00741	3.45e-07	46500	–	–	–	–	2LIG189 variant M97I (VHH, not shown: small tags and cut ends, also called M971 (so in the source)) VHH: QVQLQESGGGLVQAGGSLRLSCAASGKIFSGNDMGWYRQAPGKQRELVGIITSGGITDYADAVKGRFTISRDNAKNMMYLQMNSLKPEDTAVYYCNIRDRTIWWGQGTQVTVSS	–
–	–	–	–	–	–	–	–	–	SEQ ID NO: 72 (2LIG189 humanization variant with deamidation and oxidation risk sites removed) (VHH, also called 2LIG189 second wave variant) VHH: DVQLVESGGGLVQPGGSLRLSCAASGKIFSGNHMGWYRQAPGKQRELVGIITSGGITDYADAVKGRFTISRDNSKNTVYLQMNSLRPEDTAVYYCNVRDRTIWWGQGTLVTVSS	Kd [4]: 0.144 nM; koff [4]: 7.71e-05 s⁻¹; kon [4]: 536000 M⁻¹ s⁻¹; fold increase in affinity [5]: 40 fold
–	–	–	–	–	0.62	0.452	0.000304	671000	2LIG99_OPT4 (VHH) VHH: DVQLVESGGGLVQPGGSLRLSCTASGTIFSINRMDWFRQAPGKQRELVALITSDGTPAYADSAKGRFTISRDNSKNTVSLQMNSLRPEDTAVYYCHVSSGVYNYWGQGTLVTVSS	–
–	–	–	–	–	2.27	0.124	7.55e-05	607000	2LIG99_OPT5 (VHH) VHH: DVQLVESGGGLVQPGGSLRLSCTASGTIFSINRMDWFRQAPGKQRELVALITSDGTPAYADSAKGRFTISRDNSKKTVYLQMNSLRPEDTAVYYCHVSSGVYNYWGQGTLVTVSS	–
–	–	–	–	–	0.03	10.3	0.00124	121000	P-1664: 2LIG99_OPT6 (Q1D_Q5V_A14P_T23A_A63V_T74S_K76N_S79Y_K86R_Q110L) (VHH, not shown: C-terminal His-tag) VHH: DVQLVESGGGLVQPGGSLRLSCAASGTIFSINRMDWFRQAPGKQRELVALITSDGTPAYADSVKGRFTISRDNSKNTVYLQMNSLRPEDTAVYYCHVSSGVYNYWGQGTLVTVSS	–
–	–	–	–	–	0.19	1.48	0.000658	445000	P-1660: 2LIG99_OPT2 (Q1D_Q5V_A14P_T23A_T74S_K86R_Q110L) (VHH, not shown: C-terminal His-tag) VHH: DVQLVESGGGLVQPGGSLRLSCAASGTIFSINRMDWFRQAPGKQRELVALITSDGTPAYADSAKGRFTISRDNSKKTVSLQMNSLRPEDTAVYYCHVSSGVYNYWGQGTLVTVSS	–
–	–	–	–	–	–	–	–	–	P-1665: 2LIG99_D54G (VHH, not shown: C-terminal His-tag) VHH: QVQLQESGGGLVQAGGSLRLSCTASGTIFSINRMDWFRQAPGKQRELVALITSGGTPAYADSAKGRFTISRDNTKKTVSLQMNSLKPEDTAVYYCHVSSGVYNYWGQGTQVTVSS	kon [8]: 1.28e+06 M⁻¹ s⁻¹
